For the data set, the system named is DBF1 (Zea mays). Put plainly: cell_activity. The following applies: maize callus, GUS reporter; nearly 3-fold with ABA.
Sequence of DBF1 (Zea mays) (chain, as listed by the source): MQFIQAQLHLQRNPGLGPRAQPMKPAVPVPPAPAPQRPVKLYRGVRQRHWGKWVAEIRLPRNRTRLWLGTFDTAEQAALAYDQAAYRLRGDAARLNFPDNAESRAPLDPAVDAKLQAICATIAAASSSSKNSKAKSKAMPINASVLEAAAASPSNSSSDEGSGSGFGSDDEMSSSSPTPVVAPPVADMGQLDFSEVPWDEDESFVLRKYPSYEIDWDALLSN

With rab17 promoter -350/+30, the activity was 2 fold.
